# B1: HSE-DY682 (dsDNA)
# DNA 1: TCGATTTTCCAGAACGTTCCATCGGC
# DNA 2: GCCGATGGAACGTTCTGGAAAATCGA
# Target: Hsf1-StrepTag II;Ssa1 (Hsp70) (Saccharomyces cerevisiae;Saccharomyces …, UniProt P10961;P10591 1-833;1-642, |)
# Experiment: EMSA; 0.25 uM complex, 0.05 uM probe; 10 mM Tris-HCl pH 7.5, 50 mM KCl, 2.5 mM DTT, 0.25% Tween 20, 20 min at 20 C; 6% DNA retardation gel in TBE (modified: 1 mM MgCl2, no DTT listed, 0.7% agarose)
# Details: protein: recombinant;recombinant; tags: C-terminal StrepTag II;6xHis-SUMO removed by Ulp1; chain copies: 3;1; blunt
# Hsf1-StrepTag II;Ssa1 (Hsp70), sequence (P10961 whole entry, chain 1 of 2): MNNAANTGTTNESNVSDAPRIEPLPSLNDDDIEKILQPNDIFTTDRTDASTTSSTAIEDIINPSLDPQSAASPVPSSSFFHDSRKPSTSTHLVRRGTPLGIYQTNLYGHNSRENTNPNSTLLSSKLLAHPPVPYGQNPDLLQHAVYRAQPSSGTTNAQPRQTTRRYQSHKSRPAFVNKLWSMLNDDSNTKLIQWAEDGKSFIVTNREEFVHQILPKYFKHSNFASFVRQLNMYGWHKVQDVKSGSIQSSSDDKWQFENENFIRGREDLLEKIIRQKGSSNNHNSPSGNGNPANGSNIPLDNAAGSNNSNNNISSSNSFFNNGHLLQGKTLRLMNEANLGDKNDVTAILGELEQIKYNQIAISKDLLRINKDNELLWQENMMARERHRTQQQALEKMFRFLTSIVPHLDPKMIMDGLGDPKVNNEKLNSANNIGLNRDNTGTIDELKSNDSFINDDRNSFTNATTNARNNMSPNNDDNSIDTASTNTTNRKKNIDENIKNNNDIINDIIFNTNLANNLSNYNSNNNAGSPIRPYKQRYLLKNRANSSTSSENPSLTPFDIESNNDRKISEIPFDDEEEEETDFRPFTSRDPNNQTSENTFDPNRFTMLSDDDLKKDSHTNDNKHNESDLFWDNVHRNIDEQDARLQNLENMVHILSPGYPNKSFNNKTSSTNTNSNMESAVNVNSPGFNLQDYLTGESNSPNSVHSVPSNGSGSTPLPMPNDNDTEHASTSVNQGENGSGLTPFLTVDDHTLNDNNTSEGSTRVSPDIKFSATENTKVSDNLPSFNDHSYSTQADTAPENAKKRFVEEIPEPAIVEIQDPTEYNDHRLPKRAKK
# Hsf1-StrepTag II;Ssa1 (Hsp70), sequence (P10591 whole entry, chain 2 of 2): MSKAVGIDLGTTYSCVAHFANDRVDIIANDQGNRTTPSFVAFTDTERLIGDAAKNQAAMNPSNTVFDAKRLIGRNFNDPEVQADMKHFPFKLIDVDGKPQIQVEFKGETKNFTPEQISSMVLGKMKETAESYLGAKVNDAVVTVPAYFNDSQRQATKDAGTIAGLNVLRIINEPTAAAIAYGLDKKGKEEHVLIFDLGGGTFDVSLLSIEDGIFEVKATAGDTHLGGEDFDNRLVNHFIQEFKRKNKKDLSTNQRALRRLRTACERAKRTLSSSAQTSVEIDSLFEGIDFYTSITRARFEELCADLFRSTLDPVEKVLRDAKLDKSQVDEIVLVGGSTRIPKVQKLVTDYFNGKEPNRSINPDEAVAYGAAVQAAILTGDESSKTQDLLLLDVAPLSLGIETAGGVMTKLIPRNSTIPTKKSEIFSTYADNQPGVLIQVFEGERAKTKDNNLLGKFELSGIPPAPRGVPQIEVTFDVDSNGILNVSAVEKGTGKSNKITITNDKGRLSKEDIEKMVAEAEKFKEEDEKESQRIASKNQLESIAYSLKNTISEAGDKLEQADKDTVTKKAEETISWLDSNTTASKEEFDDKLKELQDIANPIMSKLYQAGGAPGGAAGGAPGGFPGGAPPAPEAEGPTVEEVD
binder,measurement,value
B1,binding result,binds

# — publication PMC6779467, “Cytoplasmic protein misfolding titrates Hsp70 to activate nuclear Hsf1”
